We go through one molecule from publication PMC9531947, “Targeting A-kinase anchoring protein 12 phosphorylation in hepatic stellate cells regulates liver injury and fibrosis in mouse models” (eLife, 2022).

The target in the assay is T1, AKAP12 with its five activation-responsive phospho-sites deleted by CRISPR-directed HDR, human HSCs (human (endogenous locus in primary …, UniProt Q02952-1 1-1782, deletion of the five phospho-sites T675, S676, S678, S687, S688 (PDEL; limits …).
T1 construct: human AKAP12 with the region of the phospho-sites T675, S676, S678, S687, S688 deleted; The transfected cells are a mixture of edited and unedited cells; the co-precipitate with the AKAP12 antibody holds both forms; also called CRISPR-edited AKAP12; PDEL (human); source: in cell extract and fixed cells
In words: co-IP; extracts of primary human HSCs (cultured 0, 3 or 6 days; WT or CRISPR-edited HDR cells; negative control or Prkca siRNA A or B); AKAP12-HSP47 co-immunoprecipitation and western blot. To be noted: partners not purified. For orientation: A western blot detects proteins with antibodies after separation by electrophoresis.

T1 sequence (Q02952 other isoform, or with tags, fused parts or gaps with the stated changes): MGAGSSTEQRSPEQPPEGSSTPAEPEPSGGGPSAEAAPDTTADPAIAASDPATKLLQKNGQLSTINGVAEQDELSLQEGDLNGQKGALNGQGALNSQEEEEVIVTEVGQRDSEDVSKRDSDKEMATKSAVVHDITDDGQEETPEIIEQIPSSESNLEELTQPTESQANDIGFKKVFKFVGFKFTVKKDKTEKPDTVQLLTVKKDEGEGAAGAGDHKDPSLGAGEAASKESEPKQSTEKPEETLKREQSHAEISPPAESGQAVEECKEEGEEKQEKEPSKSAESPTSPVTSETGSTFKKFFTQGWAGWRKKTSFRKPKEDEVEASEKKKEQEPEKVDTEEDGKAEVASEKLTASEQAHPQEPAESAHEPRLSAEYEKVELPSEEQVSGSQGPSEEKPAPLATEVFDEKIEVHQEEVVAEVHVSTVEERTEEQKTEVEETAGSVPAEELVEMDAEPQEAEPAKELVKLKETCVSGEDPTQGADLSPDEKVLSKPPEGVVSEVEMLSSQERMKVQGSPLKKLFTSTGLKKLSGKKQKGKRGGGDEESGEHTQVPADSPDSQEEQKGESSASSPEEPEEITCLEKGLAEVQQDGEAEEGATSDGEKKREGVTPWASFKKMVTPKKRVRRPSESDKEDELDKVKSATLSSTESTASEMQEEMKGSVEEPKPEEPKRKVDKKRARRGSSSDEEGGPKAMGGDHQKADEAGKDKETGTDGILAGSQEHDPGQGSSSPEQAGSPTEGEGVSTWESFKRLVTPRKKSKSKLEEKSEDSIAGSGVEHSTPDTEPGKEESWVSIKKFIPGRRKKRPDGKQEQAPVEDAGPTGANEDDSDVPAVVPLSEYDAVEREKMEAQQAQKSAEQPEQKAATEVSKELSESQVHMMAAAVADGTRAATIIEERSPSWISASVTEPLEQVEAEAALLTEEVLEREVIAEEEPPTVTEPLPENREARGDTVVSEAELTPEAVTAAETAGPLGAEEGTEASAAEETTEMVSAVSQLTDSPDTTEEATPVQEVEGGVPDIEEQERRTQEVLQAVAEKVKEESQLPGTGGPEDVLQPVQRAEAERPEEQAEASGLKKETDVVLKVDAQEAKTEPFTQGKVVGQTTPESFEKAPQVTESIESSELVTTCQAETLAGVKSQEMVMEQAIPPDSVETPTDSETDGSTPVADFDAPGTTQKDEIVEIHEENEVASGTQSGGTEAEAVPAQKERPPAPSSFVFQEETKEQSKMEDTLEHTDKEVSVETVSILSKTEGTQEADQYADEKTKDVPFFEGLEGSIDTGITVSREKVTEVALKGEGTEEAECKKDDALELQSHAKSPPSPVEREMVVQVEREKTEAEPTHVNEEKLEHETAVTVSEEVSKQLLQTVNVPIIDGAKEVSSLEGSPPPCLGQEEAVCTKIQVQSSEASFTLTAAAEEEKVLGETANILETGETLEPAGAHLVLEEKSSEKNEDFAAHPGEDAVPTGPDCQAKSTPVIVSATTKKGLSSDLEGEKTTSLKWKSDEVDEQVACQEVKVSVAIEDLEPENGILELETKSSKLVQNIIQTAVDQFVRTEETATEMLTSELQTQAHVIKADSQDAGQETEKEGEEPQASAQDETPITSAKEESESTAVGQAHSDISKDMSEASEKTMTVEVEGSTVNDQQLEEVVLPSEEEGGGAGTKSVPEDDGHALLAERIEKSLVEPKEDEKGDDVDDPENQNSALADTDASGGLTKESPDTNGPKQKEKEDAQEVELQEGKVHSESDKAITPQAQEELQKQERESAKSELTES

B1: heat-shock protein 47 (HSP47), human, endogenous (natural protein, UniProt P50454 19-418, looked up)
chain: AEVKKPAAAAAPGTAEKLSPKAATLAERSAGLAFSLYQAMAKDQAVENILVSPVVVASSLGLVSLGGKATTASQAKAVLSAEQLRDEEVHAGLGELLRSLSNSTARNVTWKLGSRLYGPSSVSFADDFVRSSKQHYNCEHSKINFRDKRSALQSINEWAAQTTDGKLPEVTKDVERTDGALLVNAMFFKPHWDEKFHHKMVDNRGFMVTRSYTVGVMMMHRTGLYNYYDDEKEKLQIVEMPLAHKLSSLIILMPHHVEPLERLEKLLTKEQLKIWMGKMQKKAVAISLPKGVVEVTHDLQKHLAGLGLTEAIDKNKADLSRMSGKKDLYLASVFHATAFELDTDGNPFDQDIYGREELRSPKLFYADHPFIFLVRDTQSGSLLFIGRLVRPKGDKMRDEL
notes: heat-shock protein 47 (HSP47), ER-resident collagen chaperone, human, endogenous in primary HSCs and liver tissue; source: endogenous, primary human HSC extracts and fixed cells; human liver tissue array
B1: the “fold change of the AKAP12-HSP47 co-immunoprecipitate against WT cells” value was 2.5 fold.
